Data from patent publication US20260176659A1, “IMPROVED METHOD FOR THE PRODUCTION OF NATURAL VANILLIN” (BASE SE, priority 2022, published 2026).

B1: CO-20: alkene cleavage oxygenase, Pseudomonas frederiksbergensis, SEQ ID NO: 120 (protein, listed as Pseudomonas frederiksbergensis)
chain: MTHPFPQTPEFSGALYAPSRVEAEVFDLEVEGTLPDSIRGAFYQVAPDPQYPPMLGNDIFFNGDGMVSAFNFADGKVSMRRRYVKTDRLMAQRREGRSLNGVYRNVFTNDPLAAKNNTTANTSVVAHNGVLLALKEDALPWAMDLETLETLGEWSFDGQIESATFTAHPKLDPVTGNLLAFSYEAKGDGTPDLAYFELSPDGKLLHQIWFQAPYAAMVHDFAVTEHYVVFPLIPLTVDVERMKNGGQHFQWQPDLPQLFAVVPRNGHAEDVRWFKGPKDGFQGHTLNAFDEDDKVYVDMPVTGGNIFYFFPQADGYVPPPETLAASLMRWTFDLTSTQDDIQPQPLTDYPCEFPRCDDRYIGRKYEHGFVLAFDPERPYNPANGPIPFQFFNLLARVNLKTGATDAWFPGDSGCFQEPIFIPRAPDAQEADGYVVALLNLIAEGRSELVVLDSRDMASGPIARIKVPFRLRMSLHGCWVPSKK
B2: CO-17: alkene cleavage oxygenase, Coniochaeta pulveracea, SEQ ID NO: 82 (protein, listed as Coniochaeta pulveracea)
chain: MAHIFDLAPEVSLPDEPIYKDGKLHRPNHVQFPQTPVFASMNKPSRFEGTILSLEHTGIIPPEINGTFFRVQPDHRFPPMFEDDIHFNGDGSVTAIRIFDGKVDFRQRYVHTERYKAETKARRSLFGRYRNPWTDNESVKGVIRTASNTNVFFWRGMLLATKEDGPPYAMDPVTLETYGRYDFEGQILSPTFTAHPKFDPRTGEMVCFAYETGGDGADCSREVMVWTLDKDGKKVSERWFEAPFAGMIHDCGLSENWLVLPLTPIKMDLERMKRGGNKFAWDPKEDQVYGLVPRRGDGEVKWFRGENAFHGHVAGCYENAQGHVVIDLTVADGNVFFWFPPDGEEQGQFAKRNKLSSPTHRWILDPSLPNNARITPALVWPTNGEFSRIDDRWTTRKYKHFWLAKVDPSRPYDFAKCGPPAGGLFNCLGHYTWDLDNELATGQEDVYFAGPTCTFQEPTFIPKGDKEGEGWLIALVNHLDVLRNDVVILDAQNLAKGPVCTIHLPLKLKLGLHGNWVDWRDIEDWTKRRQEDGEVGPVQVATEMLPWQKAFWEKEKEKNGNGVEGPNINGTNGANGTNGVNGSSH
B3: CO-16: alkene cleavage oxygenase, Valsa mali, SEQ ID NO: 76 (protein, listed as Valsa mali)
chain: MAHIFDIAPAVKGYASGRLAKPGDATTFPDTDVFRGINKPSRFEGDIFDLEVTGTIPKDIDGTFYRVQPDHRFPPLFEDDIHFNGDGSVTAIRISNGHADFKQRYVQTDRYKAETAARRSLFGRYRNPWTDNESVKGVIRTASNTNVTFWRGILLASKEDGPPFAMDPVTLETLGRYDFEGQIKAPTFTAHPKFDPDTGEMLCFAYEAGGDGNDGSCDVVVWTVDADGKKTEECWYKAPFAGMIHDMAVSKNFVVLPLTPLKVNMDRMKKGGEKFAWDPKEDQYYGLVPRRNAKPEDIRWFRADNGMAPFLKTLSTHCADTPASSAFQGHIAGCYENEEGHVVVDLTVADGNVFFWWPPDDGTAIPPGKKPNQLSSTTTRWILDPKAETNTRITPAYVWPTNGEFSRIDDRFVTKKYKHFWQAKVDPTRPYDFAKCGPPAGGLFNCLGHYTWSPDNPLAKGEEDVFFFGPTATVQEPSFIPKDEGGEGDGYLIALVNHLDVLRNDIAVFDAQHLAGGPLAVLHLPLKLKLGLHGNFVDHRDIEAWQRRRDAKGDVGPVKVATEPLPWQKSFWDRRQDGQNGGLNGTH
B4: CO-15: alkene cleavage oxygenase, Herbaspirillum sp., SEQ ID NO: 74 (protein, listed as Herbaspirillum sp.)
chain: MNIRFSNNDFKSFEAPMRAEIELTGLEVVQGKVPKNLEGGFFRLIGDRKWPAFVDNDVFMLNEDGMASCFYFKDGKVDFRMRYVRTPRFVAEEKAGRALFGHYRNPFSDDPSVAGLSRGTANVTMLMHGGKLLALKEDSPAIELNPFTLETIGEYDWNGKVTAKAITAHPKIDAKTGELVFFGYCAAGPATRDIAYYEADSEGNVTHETWFHAPYTCMVHDIMVTQNYVVFPITPLRHELEWIKRSEPAFKWDPHESVYLGVLPRKGRGDQIRWFKGPNQCHGHTVGAYDDGRYIYADNTFSKRSFFHFFPNVDGSQFKPTDAMPYMKRVVIDMERSDNSFVEQPLFEYPCELPRIDTRFETLPYSFATMNLLDVPGQERVGRGFQWIATMDVNGAKPSKILYAGDNCSIGEPQFVPAHDNAAEGDGYIMTVVGRHEQMRSELLILDASDINAPPVATVALPFRLRSTGHGYWYGGRQLRGETNFPGAW
B5: CO-13: alkene cleavage oxygenase, Actinobacteria bacterium, SEQ ID NO: 64 (protein, listed as Actinobacteria bacterium)
chain: MVRFPPPKDPFDAPMRVEADIRGVQVTQGEVPEHLDGIYYRCVSDRQWPSYVENDLELFNSDGMIISFRFHKGRVDFKSRYVRTPRFVAEEKAGRALFGAYRNPFDDDPSVAGISRGLANTNVFYHGGKLYASKEDSPPILLDPITLETIGEYDFEGALTSRTSTAHPKFDPITGEMVFFGYEAKGPGTPDIAYYEADASGRIIHEAWLEAPYTSMVHDWAVTQNFVVFPIIPLRSDIEWIKQGRSYFQWDPYEDVYLGVMPRKGTAKDLRWYRGSNRFASHIMGAYDDGRYIYIDTPVGQTNYFPWFPDITGAPYDPERSKGYLSRWTIDTQGESDGFTETRLCDLPGEFPRMDDRQETLPYHWGIMLLTDGPGRVAPGGGFRWLMGIDLKTGRKQIYYPGDNCTLGEAIFVPAAPDAPPGVGYVFTVVARRAEMRSDLVILDAQHIDGEPVCTLSLPMRIRMGVHGNWVSAEELARRTA

Test: Bioconversion of eugenol to vanillin: one-pot concurrent cascade EUGO + alkene cleavage oxygenase (5 mM scale)
Assay type: biochemical
Conditions: Table 8b; EUGO FD-CFE 1 mg/mL, CO-0X FD-CFE 1 mg/mL, catalase 10 mg/mL; eugenol 5 mM; pH 8.0
Experimental: Stock solutions of eugenol (100 mM) were prepared in ethanol or DMSO and stored at −20° C. Unless otherwise stated, the reaction mixtures (0.5 mL) were set up in 1.5 mL glass vials as follows: freeze-dried cell free extract of IECO/CO-XX (3 mg) and EUGO (0.5 mg) were dissolved in the reaction buffer (50 mM glycine-NaOH pH 9.0) containing sodium ascorbate (1 mM), FeSO4 (1 mM) and bovine liver catalase (5 mg, Sigma Aldrich C40). The reaction was initiated by the addition of 0.025 mL eugenol stock (final concentration 5 mM), then incubated at 30° C. and 120 rpm overnight (rotary shaker). The final content of cosolvent was 5% v/v. To improve oxygenation, the vials were placed horizontally. At certain time points, samples (0.2 mL) were quenched with methanol (0.4 mL) and the mixture was centrifuged at 20238 g for 5-10 mins. Finally, the supernatant was analysed by HPLC.
EUGO (0.5 mg CFE), CO-25 (3 mg CFE) and catalase (5 mg, Sigma product #C40) were dissolved in 50 mM Glycine-NaOH pH 9.0 or Tris-HCl pH 8.0 together with FeSO4 (1 mM) and sodium ascorbate (1 mM). Note that the buffer content of the freeze-dried biocatalyst prep was not considered for the assembling of the reaction. The reaction was started by the addition of 5 mM eugenol from a 20× stock in ethanol. The reactions—performed in glass vials—were then incubated at 30° C. and 120 rpm (25 mm shaker). Finally, samples of the reaction mixture were diluted with MeOH and analyzed by HPLC at 280 and 340 nm.

Product distribution after 24 hours 2a (%) | Product distribution after 24 hours 3a (%) | Product distribution after 24 hours 5a (%) | Molecule
59.4 | 23.6 | 17.0 | B1
73.1 | 7.8 | 19.1 | B2
76.0 | 4.3 | 19.7 | B3
68.3 | 13.5 | 18.2 | B4
56.4 | 26.4 | 17.2 | B5

Same assay, conditions: Table 8b; EUGO FD-CFE 1 mg/mL, CO-0X FD-CFE 1 mg/mL, catalase 10 mg/mL; eugenol 5 mM; pH 9.0

Product distribution after 24 hours 2a (%) | Product distribution after 24 hours 3a (%) | Product distribution after 24 hours 5a (%) | Molecule
57.8 | 22.0 | 20.2 | B1
65.8 | 11.8 | 22.5 | B2
71.0 | 5.5 | 23.5 | B3
61.2 | 16.5 | 22.2 | B4
45.3 | 32.4 | 22.3 | B5
